{"source": "paper PMC7954794", "about": "“Protein context shapes the specificity of SH3 domain-mediated interactions in vivo” (Nature Communications, 2021)", "system": "PPIs identified as affected by the SH3 domain deletions", "test": "Liquid DHFR-PCA low-throughput validation of PPIs affected by SH3 deletion (Fig. S1D-E)", "assay_type": "cell-based, Saccharomyces cerevisiae", "settings": "label = prey, liquid DHFR-PCA, prey _1 = lost, _2 = gained in screen", "experimental": "Liquid DHFR-PCA low-throughput experiments were performed to validate the PPIs identified as affected by the SH3 domain deletions in the high-throughput solid DHFR-PCA screen (256 PPIs weaker or lost and 116 PPIs stronger or gained following domain deletions). Mating and the diploid selection were performed as described for the large-scale experiment, with the exception that the plates were in 384 formats. Following the second diploid selection, diploid cells were inoculated in a 96 v-shaped well plate using a robotically manipulated 96 pin tool in a synthetic complete medium with MSG at pH 6.0 with NAT and HPH. After 48 h of growth, optical density (OD) was read using a TECAN Infinite F200 Pro, and dilutions to 1 OD in sterile nanopure water were prepared. Cells were then diluted to 0.1 OD by combining 25 µl of cell suspension at OD = 1 and 225 µl of PCA selection media without agar in a 96-wells plate. Plates were incubated at 30 °C in a TECAN Infinite M Nano and OD was monitored each 15 min for 72 h."}
{"molecule": "YGR037C_2 (protein, UniProt P31787 1-87, looked up) Acyl-CoA-binding protein: MVSQLFEEKAKAVNELPTKPSTDELLELYALYKQATVGDNDKEKPGIFNMKDRYKWEAWENLKGKSQEDAEKEYIALVDQLIAKYSS", "values": [{"measurement": "Ratio (Deletedscore / WTscore)", "setting": "bait LSB3", "value": 1.675}, {"measurement": "Ratio (Deletedscore / WTscore)", "setting": "bait MYO3", "value": 1.004}, {"measurement": "Ratio (Deletedscore / WTscore)", "setting": "bait MYO5", "value": 0.9102}]}
{"molecule": "YGR229C_2 (protein, UniProt P32566 1-505, looked up) Cell wall assembly regulator …: MDLFKRKVKEWVYSLSTDDHYAEYNPDETPTFNMGKRLNSNNGQVNPSQMHLNSVDEEMSMGFQNGVPSNEDINIDEFTSTESNDGVSETLLAWRHIDFWTSEHNPDLNATLSDPCTQNDITHAEEDLEVSFPNPVKASFKIHDGQEDLESMTGTSGLFYGFQLMTLDQVVAMTQAWRNVAKNLNKRSQQGLSHVTSTGSSSSMERLNGNKFKLPNIPDQKSIPPNAVQPVYAHPAWIPLITDNAGNHIGVDLAPGPNGKYAQIITFGRDFDTKFVIAENWGEFLLSFANDLEAGNWYLVDDNDDYFSGDGELVFRDKKSNGPIQDYFEVLKRRTWIKYQENLRSQQQKSQPDTSLQEQKYVPASQKKVAAEQPSTLNAESIKGEDSGSADVQSVQDHESVKIVKTEPSEAETTTVNTESLGQAEHEIKADNVDIKQESERKEDEKQPKVEEKEHVENEHVTESAKKDDDVNKQTEEMNKKEENEIRSDDAKVEEAREEFENIAL", "values": [{"measurement": "Ratio (Deletedscore / WTscore)", "setting": "bait BZZ1-1", "value": 1.034}, {"measurement": "Ratio (Deletedscore / WTscore)", "setting": "bait BZZ1-2", "value": 1.734}, {"measurement": "Ratio (Deletedscore / WTscore)", "setting": "bait LSB1", "value": 1.08}, {"measurement": "Ratio (Deletedscore / WTscore)", "setting": "bait PIN3", "value": 1.619}]}
{"molecule": "YNL094W_1 (protein, UniProt P53933 1-587, looked up) Phosphatidate phosphatase APP1: MNSQGYDESSSSTAATSGPTSGDPRMGKKQRFMNLIRTTKDVYIPNLTSSISQKTMDGIRSTTNSFEGYNDLPMELPHNTTITYFPTYTTTNLVDPDGLSAPRKDFETTVRCAVSYPGNPTSRRNRWLLSLCKQYLRTGTAEADVAPVVPPHLEEDSGDLNDSQSSIESSLSSKSENRYSHMGIQEEDVLNERIQGFLSKKVPNTPVVVDLLPKDKLRGDTASFFGTTDSYGNLLIKAETDFLPSKINITLDTPIEGHADPISETFPANYVSPYGIGLISDIDDTIKHTGVTGDRRSMFRNVFIHDVQSWVIDGVPLWYKTLHDVADVDFFYVSNSPIQTFTLLKQYICANFPPGPIFLKQYSGNFFSTIMTSSANRKIQPIANILKDFPKKKFILVGDSGEHDLEAYTTTALQFPNQILAIYIRCCSNSMSDVPSHDEEVMNEVNNIIELQQRPMQMTKSTVRTRRRPPPPPIPSTQKPSLTEEQTESIRMSRRNKDENNAKRVAPPPLPNRQLPNLDANTYYVPSSQNDYGMYGAFMDKKADEWKRRVMDSIQKLSNQDTTLMFFSDPALSLEDSIRRIREKYSN", "values": [{"measurement": "Ratio (Deletedscore / WTscore)", "setting": "bait ABP1", "value": 0.4956}]}
{"molecule": "YFR004W_2 (protein, UniProt P43588 1-306, looked up) Ubiquitin carboxyl-terminal …: MERLQRLMMNSKVGSADTGRDDTKETVYISSIALLKMLKHGRAGVPMEVMGLMLGEFVDDYTVNVVDVFAMPQSGTGVSVEAVDDVFQAKMMDMLKQTGRDQMVVGWYHSHPGFGCWLSSVDVNTQKSFEQLNSRAVAVVVDPIQSVKGKVVIDAFRLIDTGALINNLEPRQTTSNTGLLNKANIQALIHGLNRHYYSLNIDYHKTAKETKMLMNLHKEQWQSGLKMYDYEEKEESNLAATKSMVKIAEQYSKRIEEEKELTEEELKTRYVGRQDPKKHLSETADETLENNIVSVLTAGVNSVAIK", "values": [{"measurement": "Ratio (Deletedscore / WTscore)", "setting": "bait ABP1", "value": 1.111}, {"measurement": "Ratio (Deletedscore / WTscore)", "setting": "bait LSB3", "value": 1.521}, {"measurement": "Ratio (Deletedscore / WTscore)", "setting": "bait MYO3", "value": 1.308}, {"measurement": "Ratio (Deletedscore / WTscore)", "setting": "bait MYO5", "value": 1.194}, {"measurement": "Ratio (Deletedscore / WTscore)", "setting": "bait RVS167", "value": 1.454}]}
{"molecule": "YOR284W_1 (protein, UniProt Q12134 1-243, looked up) Protein HUA2: MQQTKFGKMYLDHDSVVEYSEDEIVEADRITLGYKKRLSMIENQMRHLLEDFSLDVQQIEPILADLQKYYDAFLQLLQKRNKSLQCKRSTHQPVPSPMNSQTSTNAKVNLSGKLMKFQLNSVQKFDEENILRILQNKIEFEHYFQIDKGKKQKVLLLAVYQCLNGPTRLHKVLNIEGIIHNNSIRTILGKQVSSSKWTVFLYDVKLVLLAHRQDVPNLETSKMIVRYGDLFPCALYFKDHTAY", "values": [{"measurement": "Ratio (Deletedscore / WTscore)", "setting": "bait ABP1", "value": 0.3885}]}
{"molecule": "YLR191W_2 (protein, UniProt P80667 1-386, looked up) Peroxisomal membrane protein …: MSSTAVPRPKPWETSASLEEPQRNAQSLSAMMTSNQQDSRPTEESNNSNSASESAPEVLPRPAALNSSGTYGESNTIPGIYGNSNYGIPYDNNPYSMNSIYGNSIGRYGYGGSYYGNNYGSFYGGGYGAGAGYGMNNGSGLGESTKATFQLIESLIGAVTGFAQMLESTYMATHNSFFTMISVAEQFGNLKEMLGSFFGIFAIMKFLKKILYRATKGRLGIPPKNFAESEGSKNKLIEDFQKFNDSGTINSNEKATRRKISWKPLLFFLMAVFGFPYLLNKFITKLQTSGTIRASQGNGSEPIDPSKLEFARALYDFVPENPEMEVALKKGDLMAILSKKDPLGRDSDWWKVRTKNGNIGYIPYNYIEIIKRRKKIEHVDDETRTH", "values": [{"measurement": "Ratio (Deletedscore / WTscore)", "setting": "bait BEM1-1", "value": 1.873}, {"measurement": "Ratio (Deletedscore / WTscore)", "setting": "bait", "value": 1.174}]}
{"molecule": "YGL099W_1 (protein, UniProt P53145 1-640, looked up) Large subunit GTPase 1: MPPKEAPKKWKAPKGPKPTHRKNKNKLELGRAIKYARQKENAIEYLPDGEMRFTTDKHEANWVKLRSVTQESALDEFLSTAALADKDFTADRHSNVKIIRMDSGNDSATSQGFSMTNEQRGNLNAKQRALAKDLIVPRRPEWNEGMSKFQLDRQEKEAFLEWRRKLAHLQESNEDLLLTPFERNIEVWKQLWRVVERSDLVVQIVDARNPLLFRSVDLERYVKESDDRKANLLLVNKADLLTKKQRIAWAKYFISKNISFTFYSALRANQLLEKQKEMGEDYREQDFEEADKEGFDADEKVMEKVKILSIDQLEELFLSKAPNEPLLPPLPGQPPLINIGLVGYPNVGKSSTINSLVGAKKVSVSSTPGKTKHFQTIKLSDSVMLCDCPGLVFPNFAYNKGELVCNGVLPIDQLRDYIGPAGLVAERIPKYYIEAIYGIHIQTKSRDEGGNGDIPTAQELLVAYARARGYMTQGYGSADEPRASRYILKDYVNGKLLYVNPPPHLEDDTPYTREECEEFNKDLYVFDRLPDTRKEQVQNAAKAKGIDIVDLARDLNQLTFSAHTGGDTQKEAKSVTHGGKQAALYNAAEDLDRDFFKMNNVEGRLSTPFHKVQNSSAGKRHNKKNKSKNAKSKVFSIENN", "values": [{"measurement": "Ratio (Deletedscore / WTscore)", "setting": "bait ABP1", "value": 1.003}]}
{"molecule": "YCL024W_2 (protein, UniProt P25389 1-1037, looked up) Probable …: MTVANTETHSAAKPSSTIGPWKLGETLGFGSTGKVQLAQHERTGHRTAVKVISKSIFNNNGNHSNDDSVLPYNIEREIVIMKLLSHPNVLSLYDVWETNNNLYLILEYAEKGELFNLLVDHGPLPEREAINCFRQIIIGISYCHALGIVHRDLKPENLLLDSFYNIKIADFGMAALQTDADLLETSCGSPHYAAPEIVSGLPYEGFASDVWSCGVILFALLTGRLPFDEENGNVRDLLLKVQKGQFEMPNDTEISRDAQDLIGKILVVDPRQRIKIRDILSHPLLKKYQTIKDSKSIKDLPRENTYLYPLADSNNHTSASIDDSILQNLVVLWHGRHADDIVSKLKENGTNKEKILYALLYRFKLDSVRGSNKKNRNKIKKTKKNKRSSTLSSSSSLLLNNRSIQSTPRRRTSKRHSREFSSSRKRSSFLLSSNPTDSSPIPLRSSKRITHINVASANTQATPSGVPNPHKRNSKKRSSKRLSYMPNTKRSSLTSKSLSNFTNLIDDDDWEYIEKDAKRTSSNFATLIDEIFEPEKFELAKREKAELQRKVQEAKRQSVNAQKINEDEFGSEVSDGMKELKKINDKVSSPLINYEFSQQELLQDIDTLLTNRYQLSSYTRPISRLDPGLTPVTETLPNNLKEKTALLQDTEKKIIETIRRSKFLGSLLNVRGGLSPGKSELAPIEESPIVSTTPLIYNDRMEPRRISDVEVPHFTRKSKHFTTANNRRSVLSLYAKDSIKDLNEFLIKEDPDLPPQGSTDNESRSEDPEIAESITDSRNIQYDEDDSKDGDNVNNDNILSDFPQGVGISQEYDMKDKNPNQSPISKSAEPTLVVKLPSLSSFQGKNASGLGLYQREPSKVTLPSLTSNNSSVGENIEDGAEKGTESEKIAASLSDDDLKEDNDKKDNDTVNAPTTVKKPPNSVLLKKFSKGKILELEIHAKIPEKRLYEGLHKLLEGWKQYGLKNLVFNITNMIITGKLVNDSILFLRSTLFEIMVLPNGDGRSLIKFNKKTGSTKTLTKLATEIQIILQKEGVLDK", "values": [{"measurement": "Ratio (Deletedscore / WTscore)", "setting": "bait NBP2", "value": 1.51}]}
{"molecule": "YKL117W_2 (protein, UniProt P28707 2-216, looked up) Co-chaperone protein SBA1: SDKVINPQVAWAQRSSTTDPERNYVLITVSIADCDAPELTIKPSYIELKAQSKPHVGDENVHHYQLHIDLYKEIIPEKTMHKVANGQHYFLKLYKKDLESEYWPRLTKEKVKYPYIKTDFDKWVDEDEQDEVEAEGNDAAQGMDFSQMMGGAGGAGGAGGMDFSQMMGGAGGAGSPDMAQLQQLLAQSGGNLDMGDFKENDEEDEEEEIEPEVKA", "values": [{"measurement": "Ratio (Deletedscore / WTscore)", "setting": "bait ABP1", "value": 1.066}, {"measurement": "Ratio (Deletedscore / WTscore)", "setting": "bait BZZ1-2", "value": 1.596}, {"measurement": "Ratio (Deletedscore / WTscore)", "setting": "bait LSB3", "value": 1.715}, {"measurement": "Ratio (Deletedscore / WTscore)", "setting": "bait RVS167", "value": 1.422}]}
